Results reported in publication PMC9721421, “DMSO-tolerant ornithine decarboxylase (ODC) tandem assay optimised for high-throughput screening” (Journal of Enzyme Inhibition and Medicinal Chemistry, 2022).

Target: the molecule itself
Test: SEC; Superose 6 Increase 10/300 GL, 4 °C, 0.5 mL/min, running buffer 50 mM potassium pyrophosphate, 500 mM NaCl, 5% glycerol, 0.1% Tween 20, pH 7.5; elution compared with molecular weight standards; fractions checked by ODC tandem assay, Coomassie staining and western blot

B1: C-terminal Twin-Strep-tagged recombinant human ornithine decarboxylase (ODC) (enzyme, UniProt P11926 1-461, looked up)
chain: MNNFGNEEFDCHFLDEGFTAKDILDQKINEVSSSDDKDAFYVADLGDILKKHLRWLKALPRVTPFYAVKCNDSKAIVKTLAATGTGFDCASKTEIQLVQSLGVPPERIIYANPCKQVSQIKYAANNGVQMMTFDSEVELMKVARAHPKAKLVLRIATDDSKAVCRLSVKFGATLRTSRLLLERAKELNIDVVGVSFHVGSGCTDPETFVQAISDARCVFDMGAEVGFSMYLLDIGGGFPGSEDVKLKFEEITGVINPALDKYFPSDSGVRIIAEPGRYYVASAFTLAVNIIAKKIVLKEQTGSDDEDESSEQTFMYYVNDGVYGSFNCILYDHAHVKPLLQKRPKPDEKYYSSSIWGPTCDGLDRIVERCDLPEMHVGDWMLFENMGAYTVAAASTFNGFQRPTIYYVMSGPAWQLMQQFQNPDFPPEVEEQDASTLPVSCAWESGMKRHRAACASASINV
notes: Cloning sites may add a few linker residues between ODC and the 3C site; also called human ODC; ODC1; source: Expi293F cells, transiently transfected, purified (Strep-Tactin chromatography, size-exclusion chromatography); not shown: Avi tag (preceded by an HRV 3C protease site), C-terminal, kept; Twin-Strep, C-terminal, kept
  stoichiometry N: 2
